Patent US20250043302A1, “MUTATED HYDROXYPHENYLPYRUVATE DIOXYGENASE POLYPEPTIDE, AND CODING GENE AND USE THEREOF” (BEIJING DABEINONG BIOTECHNOLOGY CO., LTD., priority 2021, published 2025)

Columns and labels:
Type in all cases: in vivo
soybean T1 plants [1] = test: Mesotrione tolerance of transgenic soybean T1 plants; settings: different concentrations
[2] = system: Arabidopsis thaliana T1 plants; test: Isoxaflutole tolerance of transgenic Arabidopsis thaliana T1 plants (spray, bleached leaf area grade, damage score); parameters: Scores (pesticide damage): scale not given here; settings: spray, Arabidopsis thaliana T1 plants; for Classification and statistics of the grade of pesticide damage: Grade 0 (number of plants) / Classification and statistics of the grade of pesticide damage: Grade 1 (number of plants) / Classification and statistics of the grade of pesticide damage: Grade 2 (number of plants) / Classification and statistics of the grade of pesticide damage: Grade 3 (number of plants): 16 plants
Summary of the method: (§1)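 Damage was assessed by bleaching grade (0 none; 1 <50%; 2 >50%; 3 100% of leaf area) one week after spraying. Sprays on 18-day-old T1 and wild-type plants used field-rate multiples: topramezone 25–200, isoxaflutole 35–280, mesotrione 52.5–420 g ai/ha.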

[3] = system: Arabidopsis thaliana T1 plants; test: Mesotrione tolerance of transgenic Arabidopsis thaliana T1 plants (spray, bleached leaf area grade, damage score); parameters: Scores: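 damage score 0-100 computed as Σ(N×S)/(T×M)×100 over grades 0-3 with higher meaning more damage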; settings: Arabidopsis thaliana T1 plants; for Grade 0 (classification and statistics of the grade of pesticide damage; number of plants) / Grade 1 (classification and statistics of the grade of pesticide damage; number of plants) / Grade 2 (classification and statistics of the grade of pesticide damage; number of plants) / Grade 3 (classification and statistics of the grade of pesticide damage; number of plants): 16 plants
Summary of the method: as §1

[4] = system: Arabidopsis thaliana T1 plants; test: Topramezone tolerance of transgenic Arabidopsis thaliana T1 plants (spray, bleached leaf area grade, damage score); settings: 7 DAT, Table 4; for Classification and statistics of the grade of pesticide damage: Grade 0 / Classification and statistics of the grade of pesticide damage: Grade 1 / Classification and statistics of the grade of pesticide damage: Grade 2 / Classification and statistics of the grade of pesticide damage: Grade 3: number of plants; for Scores: pesticide damage score 0-100
Summary of the method: as §1

soybean T1 plants [5] = test: Isoxaflutole tolerance of transgenic soybean T1 plants; settings: different concentrations
soybean T1 plants [6] = test: Topramezone tolerance of transgenic soybean T1 plants; settings: different concentrations
Experimental: T1 transformants were initially selected from the untransformed seeds using a glufosinate selection scheme. […] The degree of damage caused by the herbicide was measured for each plant according to the proportion of bleached leaf area (the proportion of bleached leaf area=bleached leaf area/total leaf area×100%) 7 days after spraying (7 DAT): the case where there is basically no bleached phenotype is defined as grade 0, the case where the proportion of bleached leaf area is less than 50% is defined as grade 1, the case where the proportion of bleached leaf area is more than 50% is defined as grade 2, and the case where the proportion of bleached leaf area is 100% grade is defined as grade 3.
The soybean T1 plants into which the SbHPPD-02 nucleotide sequence was introduced, soybean T1 plants into which the SbHPPDm-F372A-02 nucleotide sequence was introduced, soybean T1 plants into which the SbHPPDm-F383W-02 nucleotide sequence was introduced, soybean T1 plants into which the SbHPPDm-F372A-F383W-02 nucleotide sequence was introduced, soybean T1 plants into which the control vector DBN11726N nucleotide sequence was introduced, and wild-type soybean plants (V3-V4 at seedling stage) were sprayed with topramezone at three different concentrations (i.e., 25 g ai/ha (one-fold field concentration, 1×). […] According to the method in point 6 of Example 1, after 7 days of spraying (7 DAT), the damage degree of each plant by the herbicide was statistically analyzed, and the scoring and resistance evaluation were carried out accordingly. […]

[7] = isoxaflutole 35 g ai/ha (0.5x field concentration)
[8] = isoxaflutole 70 g ai/ha (1x field concentration)

B1: SbHPPDm-F383W-02: nucleotide sequence encoding Sorghum bicolor HPPD with F383W; vector DBN11760 (nucleic acid)
DNA: ATGCCGCCCACTCCAACAACTGCTGCTGCGACGGGAGCAGCTGTCGCCGCTGCTTCTGCTGAGCAGGCTGCCTTCAGGCTCGTCGGGCACAGAAATTTTGTTCGTGTAAATCCAAGGAGTGATAGGTTCCACACCTTGGCTTTTCACCACGTGGAGTTGTGGTGTGCTGATGCAGCCTCGGCAGCGGGGCGCTTCTCGTTTGGTCTCGGTGCTCCGCTCGCCGCAAGATCTGATCTTAGCACTGGAAACACAGCGCATGCCTCCCTGCTCCTGCGCTCTGGCGCGCTGGCGTTCCTCTTCACGGCGCCATATGCTCACGGCGCCGACGCCGCCACCGCGTCATTGCCGTCTTTTAGTGCAGCCGAAGCAAGAAGATTTGCAGCAGACCACGGCCTCGCCGTAAGGGCCGTGGCCTTACGTGTCGCCGATGCCGAAGATGCTTTCCGCGCCTCTGTAGCAGCTGGAGCAAGGCCAGCATTTGAACCTGTTGAATTGGGGTTAGGATTCCGTCTTGCAGAAGTTGAGCTTTATGGCGACGTTGTTTTGAGATACGTTTCATATCCTGATGACGCTGACGCTAGCTTCTTGCCTGGTTTTGTGGGGGTGACATCACCTGGGGCAGCAGATTATGGTCTCAGGCGGTTTGATCATATTGTTGGAAACGTTCCTGAACTCGCGCCGGCGGCAGCCTACTTCGCCGGTTTCACTGGGTTTCATGAATTTGCTGAATTCACAGCCGAGGATGTCGGCACCACCGAGAGTGGACTGAACTCCATGGTGCTGGCCAACAATGCAGAGAATGTCCTTCTTCCCTTGAATGAACCAGTTCATGGAACAAAAAGGCGTTCCCAAATACAAACATACCTCGACCATCATGGTGGACCAGGCGTTCAGCATATGGCTCTCGCTAGTGACGATGTTCTACGAACCCTGCGAGAGATGCAGGCGCGGTCTGCAATGGGAGGATTTGAGTTCATGGCACCTCCTGCCCCTGAATATTATGATGGTGTTCGGAGAAGGGCAGGTGATGTGCTAACTGAAGCTCAAATCAAGGAGTGCCAGGAGCTTGGCGTGCTGGTCGATCGGGATGATCAAGGTGTGCTTCTGCAGATTTTTACTAAACCAGTGGGTGACCGCCCCACGCTGTGGCTAGAGATCATCCAGAGAATAGGGTGCATGGAGAAGGACGAAAAAGGACAAGAGTACCAGAAGGGAGGTTGTGGCGGCTTTGGAAAAGGGAACTTCTCCCAATTATTCAAGTCAATTGAAGACTATGAAAAGAGTTTGGAGGCTAAGCAAGCTGCAGCCGCCCAGGGCAGCTGA
modifications: SbHPPDm-F383W-02 Nucleotide Sequence
notes: vector DBN11760
Soybean T1 plants [1]
  tolerance to HPPD-inhibitor herbicides (in words): mesotrione: different degrees of tolerance
[2]; [7]
  Resistance evaluation: Poorly
  Scores (pesticide damage): 65
  Classification and statistics of the grade of pesticide damage: Grade 0 (number of plants): 0
  Classification and statistics of the grade of pesticide damage: Grade 1 (number of plants): 1
  Classification and statistics of the grade of pesticide damage: Grade 2 (number of plants): 15
  Classification and statistics of the grade of pesticide damage: Grade 3 (number of plants): 0
[2]; [8]
  Resistance evaluation: Non-resistant
  Scores (pesticide damage): 100
  Classification and statistics of the grade of pesticide damage: Grade 0 (number of plants): 0
  Classification and statistics of the grade of pesticide damage: Grade 1 (number of plants): 0
  Classification and statistics of the grade of pesticide damage: Grade 2 (number of plants): 0
  Classification and statistics of the grade of pesticide damage: Grade 3 (number of plants): 16
[3]; mesotrione 52.5 g ai/ha
  Resistance evaluation: Non-resistant
  Scores: 69
  Grade 0 (classification and statistics of the grade of pesticide damage; number of plants): 0
  Grade 1 (classification and statistics of the grade of pesticide damage; number of plants): 5
  Grade 2 (classification and statistics of the grade of pesticide damage; number of plants): 5
  Grade 3 (classification and statistics of the grade of pesticide damage; number of plants): 6
[3]; mesotrione 105 g ai/ha
  Resistance evaluation: Non-resistant
  Scores: 100
  Grade 0 (classification and statistics of the grade of pesticide damage; number of plants): 0
  Grade 1 (classification and statistics of the grade of pesticide damage; number of plants): 0
  Grade 2 (classification and statistics of the grade of pesticide damage; number of plants): 0
  Grade 3 (classification and statistics of the grade of pesticide damage; number of plants): 16
[4]; topramezone 25 g ai/ha (1×)
  Classification and statistics of the grade of pesticide damage: Grade 0: 7
  Classification and statistics of the grade of pesticide damage: Grade 1: 6
  Classification and statistics of the grade of pesticide damage: Grade 2: 3
  Classification and statistics of the grade of pesticide damage: Grade 3: 0
  Scores: 25
  Resistance evaluation: moderately
[4]; topramezone 100 g ai/ha (4×)
  Classification and statistics of the grade of pesticide damage: Grade 0: 0
  Classification and statistics of the grade of pesticide damage: Grade 1: 0
  Classification and statistics of the grade of pesticide damage: Grade 2: 0
  Classification and statistics of the grade of pesticide damage: Grade 3: 16
  Scores: 100
  Resistance evaluation: non-resistant (non-resistant plants (scores 68-100))
Soybean T1 plants [5]
  tolerance to HPPD-inhibitor herbicides (in words): isoxaflutole: different degrees of tolerance
Soybean T1 plants [6]
  tolerance to HPPD-inhibitor herbicides (in words): topramezone: different degrees of tolerance
